Laboratory results reported in the supplement of paper PMC10724198.
± gives the standard deviation of the averaged measurements.

These sequences were tested on Saccharomyces cerevisiae (assay: protein stability index of tFT-peptide fusion (C-terminal peptide) (PSI (0-1 scale)); higher = more stable (slower turnover)). Details: genetic background: wild type; temperature: 30 C.
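Further: PSI is a weighted mean of sequencing reads over stability bins, variants kept only with over 10 reads, mCherry proximal and sfGFP distal, peptide attached via GGGS linker.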

| Sequence | protein stability index |
| --- | --- |
| SVPSLPLSFPPF | 0.787 ± 0.032 |
| SVRGWMILCTGM | 0.562 ± 0.049 |
| SVSPPLPPSSIA | 0.673 ± 0.021 |
| SVSPPLSFPPSR | 0.706 ± 0.022 |
| SVTLSVSCPMLR | 0.708 ± 0.024 |
| SVVRKDNKLHTV | 0.596 ± 0.035 |
| SVWSSIMSVSFL | 0.6179 ± 0.00082 |
| SVYLPLGVLQCI | 0.577 ± 0.032 |
| SWGCSMAKVWVR | 0.585 ± 0.038 |
| SWGEVRRRGCSV | 0.637 ± 0.0065 |
| SWLASASGSHLI | 0.74 ± 0.015 |
| SWSAVPHSPLMP | 0.823 ± 0.068 |
| SWVDGGVRRCGV | 0.662 ± 0.019 |
| SYGPSRPARVPS | 0.695 ± 0.05 |
| SYGRECCGYASA | 0.764 ± 0.081 |
| SYLLPHTRFCFL | 0.674 ± 0.034 |
| SYRTCIRHSNAP | 0.7655 ± 0.0074 |
| SYRWAFPGVFSG | 0.678 ± 0.031 |
| SYVAERVMSRMV | 0.65 ± 0.0087 |
| SYVLLLYTGCRM | 0.585 ± 0.02 |
| SYWARCVHTTIA | 0.669 ± 0.02 |
| TARRAAARSSQL | 0.742 ± 0.03 |
| TAVGRKWCGRVL | 0.695 ± 0.028 |

| Sequence | protein stability index |
| --- | --- |
| TAYPPAPFRRIN | 0.492 ± 0.057 |
| TCHPLCSSSADR | 0.712 ± 0.039 |
| TCLDVFACYASF | 0.666 ± 0.017 |
| TCRYSSIVDKGS | 0.612 ± 0.008 |
| TCSSQMSSNFRF | 0.638 ± 0.033 |
| TDGVVRPQRQAT | 0.69 ± 0.0093 |
| TDLPTSMHETRN | 0.695 ± 0.028 |
| TDLSLSPAALRH | 0.717 ± 0.1 |
| TDLSPFPALFSL | 0.766 ± 0.15 |
| TDNVVAEKRKSK | 0.701 ± 0.18 |
| TDPKLTRTHENE | 0.674 ± 0.014 |
| TEGKPQVDPFDH | 0.704 ± 0.076 |
| TEGMISSHRVIH | 0.727 ± 0.058 |
| TEKAEVSTSSCR | 0.71 ± 0.033 |
| TEKERSKKDELK | 0.673 ± 0.064 |
| TEKWTRSSPMTR | 0.764 ± 0.087 |
| TELCPPDTPTGD | 0.6921 ± 0.0016 |
| TELRRRVGYVAL | 0.663 ± 0.032 |
| TEPHSDQPKKNA | 0.701 ± 0.14 |
| TETFARTATRRP | 0.587 ± 0.022 |
| TFGGLRVGFSSL | 0.684 ± 0.028 |
| TFHCGPFRLFSC | 0.6545 ± 0.0055 |
| TFLQRFCVGLAL | 0.654 ± 0.041 |

| Sequence | protein stability index |
| --- | --- |
| TFLVDLLSLFFL | 0.65 ± 0.046 |
| TFRRFKVQQLGN | 0.561 ± 0.023 |
| TGAALPRPGPAL | 0.659 ± 0.031 |
| TGDIKYYKDKLE | 0.639 ± 0.0097 |
| TGDTIQNTNCEM | 0.689 ± 0.027 |
| TGFGSLWCRSSG | 0.743 ± 0.062 |
| TGFGVQRKECGT | 0.629 ± 0.0066 |
| TGLRLFRPLSLP | 0.776 ± 0.069 |
| TGMRKDLVVSFW | 0.728 ± 0.051 |
| TGSAIVPHQVPS | 0.653 ± 0.015 |
| TGVRTVCDVGRW | 0.6648 ± 0.004 |
| TGWRGVLGLGPG | 0.674 ± 0.02 |
| THHQDGGRAAVR | 0.67913 ± 0.00062 |
| THPLPAPAPLRP | 0.762 ± 0.027 |
| THPPSLAPPRKA | 0.712 ± 0.0074 |
| THVPPSPIPPIM | 0.675 ± 0.0099 |
| THYFNIKCSQTK | 0.665 ± 0.013 |
| THYSTQPKSTKC | 0.689 ± 0.027 |
| TIGVTCSRLGRG | 0.685 ± 0.014 |
| TIIGLVSANEYL | 0.582 ± 0.1 |
| TIKSATLVSFST | 0.671 ± 0.072 |
| TILPDYTSRILA | 0.62 ± 0.012 |
| TIRFWRSIFPHA | 0.728 ± 0.051 |

| Sequence | protein stability index |
| --- | --- |
| TISRRSCGPAQK | 0.6743 ± 0.0041 |
| TKDRGRVYRQRG | 0.798 ± 0.051 |
| TKERERAAGKKT | 0.7005 ± 0.0067 |
| TKIKKKKNKKQE | 0.731 ± 0.0013 |
| TKKETRDKKVER | 0.721 ± 0.0086 |
| TKKIKTDTEENN | 0.701 ± 0.043 |
| TKRKKKTQEGSR | 0.698 ± 0.045 |
| TKRKKLEIGFLR | 0.625 ± 0.079 |
| TKTCPMGVIEIC | 0.656 ± 0.0013 |
| TKWYDSSKKTNK | 0.688 ± 0.075 |
| TLDGEAILVIYI | 0.5944 ± 0.0051 |
| TLENEKKKKRNT | 0.704 ± 0.084 |
| TLGGRPFQGTPA | 0.698 ± 0.016 |
| TLGYLPLRSLKI | 0.641 ± 0.046 |
| TLIPPLLRNALP | 0.713 ± 0.0066 |
| TLMLVTGLSTEV | 0.662 ± 0.01 |
| TLPARTIHTTGH | 0.717 ± 0.028 |
| TLPPPRPSPSSP | 0.689 ± 0.035 |
| TLPSRSPAPLPH | 0.643 ± 0.021 |
| TLRRPMQVPLGH | 0.633 ± 0.04 |
| TLSLGCVDSHGV | 0.696 ± 0.036 |
| TLTHKSVRLVVK | 0.57119 ± 0.00034 |
| TLVNPFYRRFNL | 0.739 ± 0.03 |

| Sequence | protein stability index |
| --- | --- |
| TLVSCRLVPSSR | 0.671 ± 0.056 |
| TMFTISGWPLFG | 0.633 ± 0.044 |
| TMTGSGRGEKWE | 0.733 ± 0.1 |
| TNGPSVWYFLVL | 0.575 ± 0.052 |
| TNNKKTRNHTSK | 0.704 ± 0.03 |
| TNSGLGTGRRSA | 0.768 ± 0.02 |
| TNSPTVSGCLQQ | 0.716 ± 0.07 |
| TNSYRTSVRGER | 0.795 ± 0.013 |
| TNTPVYRQAPQM | 0.657 ± 0.02 |
| TPFLRGTDKTTP | 0.662 ± 0.068 |
| TPLSDQLVPFGC | 0.708 ± 0.082 |
| TPPALPPPSPPA | 0.68516 ± 0.00038 |
| TPPATFCVPPPH | 0.719 ± 0.053 |
| TPPLARPSPTAL | 0.534 ± 0.12 |
| TPPPLPSPAPRP | 0.715 ± 0.062 |
| TPPPSPPQPLPP | 0.642 ± 0.043 |
| TPPVPPHPRSLL | 0.774 ± 0.11 |
| TPQLSYYKGNNL | 0.639 ± 0.013 |
| TPRPPPLPPRPP | 0.603 ± 0.029 |
| TPRPPQPGLSRT | 0.67 ± 0.027 |
| TPRRPPATPAPC | 0.653 ± 0.025 |
| TPSSPSARHPPP | 0.715 ± 0.036 |
| TPTDPLSLYAFP | 0.69 ± 0.013 |

| Sequence | protein stability index |
| --- | --- |
| TPTSLRLSSLSP | 0.648 ± 0.036 |
| TPVLATAPQGQS | 0.71 ± 0.063 |
| TPWQTREVTRAR | 0.691 ± 0.057 |
| TQGPTAPADPCS | 0.67049 ± 0.00033 |
| TQSEHRTIPKSG | 0.663 ± 0.0089 |
| TQTLLQRTYREG | 0.722 ± 0.09 |
| TRCLPPPVPPSL | 0.729 ± 0.014 |
| TRDVLWHCWVLS | 0.514 ± 0.08 |
| TRGAPHHSSGRG | 0.693 ± 0.033 |
| TRLLAWGVVGLF | 0.633 ± 0.086 |
| TRPHASPPPPPP | 0.695 ± 0.024 |
| TRPIGSPPSPAK | 0.702 ± 0.017 |
| TRRPTPPSRASL | 0.718 ± 0.049 |
| TRSLPPELTPRR | 0.705 ± 0.021 |
| TRSTKIVVEGSG | 0.736 ± 0.085 |
| TRVAYINRGETR | 0.78 ± 0.2 |
| TRVKRQFRRGGI | 0.686 ± 0.011 |
| TRYRQKRMSITT | 0.581 ± 0.014 |
| TSASLFPLGPFR | 0.666 ± 0.02 |
| TSCIVVRGGRNG | 0.6453 ± 0.0041 |
| TSDVGWVPAGSE | 0.656 ± 0.043 |
| TSETLLTLSTLT | 0.669 ± 0.04 |
| TSHMKASANDTL | 0.687 ± 0.11 |

| Sequence | protein stability index |
| --- | --- |
| TSLFVAGRVWRS | 0.703 ± 0.014 |
| TSLGSFLCGMCR | 0.6506 ± 0.0046 |
| TSLYGRDEETKV | 0.599 ± 0.077 |
| TSNRLDVDFPLS | 0.699 ± 0.0087 |
| TSPAPYPRPPPT | 0.723 ± 0.036 |
| TSPRILLPLNAT | 0.694 ± 0.014 |
| TSRKNRVKASVP | 0.739 ± 0.039 |
| TSRSPLVAPNPS | 0.738 ± 0.083 |
| TSSTPNALARIP | 0.71 ± 0.16 |
| TSWLHTCMKCSL | 0.728 ± 0.017 |
| TSYRNNKAKNQS | 0.756 ± 0.01 |
| TTGKEAQYEARK | 0.664 ± 0.071 |
| TTPYVRTSPRKP | 0.654 ± 0.0091 |
| TTQTYAPLTPHR | 0.64 ± 0.097 |
| TTSKQHRPKQMN | 0.708 ± 0.23 |
| TVAVCPKIDYSV | 0.667 ± 0.0085 |
| TVGKGCGGAEGG | 0.6439 ± 0.0029 |
| TVGRILEVSRRG | 0.66 ± 0.025 |
| TVILQRNPKIIV | 0.652 ± 0.058 |
| TVLHLCMMTFLI | 0.576 ± 0.0084 |
| TVLPAPYRSLYR | 0.714 ± 0.1 |
| TVNIIREEKAGG | 0.68 ± 0.031 |
